Test results from patent publication US20060008846A1 (RESEARCH DEVELOPMENT FOUNDATION, published 2006).
Changes are numbered by the printed parent chain. Names may count otherwise.

B1: wild type activin-A (ligand, human, UniProt P08476 311-426, looked up)
chain: GLECDGKVNICCKKQFFVSFKDIGWNDWIIAPSGYHANYCEGECPSHIAGTSGSSLSFHSTVINHYRMRGHSPFANLKSCCVPTKLRPMSMLYYDDGQNIIKKDIQNMIVEECGCS
notes: mature; As tracer it was radioiodinated by the chloramine T method; also called WT activin-A; wt activin-A
B2: activin-A (M108A) (ligand, human, UniProt P08476 311-426, looked up)
chain: B1 chain with M108A
notes: mature; Radioiodinated by the chloramine T method for the crosslinking study; also called M108A activin-A; M108A mutant

Assays:
[1] = target: T1, ActRII and ALK4 co-transfected into 293T cells (UniProt P27038 20-513; P36896 24-505); experiment: competition binding, 125I-activin on 293T cells transfected with ActRII and ALK4
T1 construct: whole, on cells; Both receptors on the same cells; also called cells transfected with ActRII and ALK4; receptor complex
T1 sequence (P27038 20-513, one chain of several): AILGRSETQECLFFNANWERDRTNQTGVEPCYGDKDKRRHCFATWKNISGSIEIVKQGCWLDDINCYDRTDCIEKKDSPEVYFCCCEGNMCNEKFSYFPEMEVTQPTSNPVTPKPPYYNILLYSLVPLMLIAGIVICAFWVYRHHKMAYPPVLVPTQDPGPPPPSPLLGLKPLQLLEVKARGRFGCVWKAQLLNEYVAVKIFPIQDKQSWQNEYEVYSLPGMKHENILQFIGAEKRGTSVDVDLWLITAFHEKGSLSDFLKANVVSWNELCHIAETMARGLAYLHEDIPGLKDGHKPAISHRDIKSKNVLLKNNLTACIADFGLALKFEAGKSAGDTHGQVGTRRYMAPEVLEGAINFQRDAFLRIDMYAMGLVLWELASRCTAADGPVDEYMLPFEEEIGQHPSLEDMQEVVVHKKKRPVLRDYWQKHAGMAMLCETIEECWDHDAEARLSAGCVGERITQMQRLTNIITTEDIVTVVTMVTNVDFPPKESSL

[2] = target: activin receptors of non-transfected 293T cells; experiment: competition binding, 125I-activin on non-transfected 293T cells
[3] = target: T2, mouse ActRII transfected into 293T cells (mouse, UniProt P27038 20-513); experiment: ActRII binding, 293T cells transfected with mouse ActRII
T2 construct: whole, on cells
T2 sequence (P27038 20-513): as the sequence (P27038 20-513, one chain of several) above
Procedure: After the incubation cells were washed three times with HDB buffer and lysed with 1% SDS solution. Radioactivity in the lysate was determined using a gamma counter.
Therefore, the inventors contemplate engineering a series of activin-A chimeras, such as activin-A/C chimeras, preferably having a peptide tag such a FLAG tag, in each of […] in the wrist loop and helix (such as A/C 46-53, 54-63, 64-69, 70-78) are replaced. Additionally, a chimera was generated in which the entire wrist region (A/C 46-78) was changed from activin-A to activin-C or some other analogous TGF-β member. In one example, the chimeras were assessed for ActRII binding, activin bioactivity as well as antagonistic properties. […] Maximum activity of A/C 64-69 and 70-78, however, was reduced down to about 20-50% and 60-90%, respectively, when compared to wt activin. […] Additionally, A/C 46-78 decreased the basal and activin induced FSH release from cultured rat anterior pituitary cells in a concentration dependent manner. […] The activin antagonist A/C 46-78 may be useful for the study and modulation of activin dependent processes.

[4] = target: T3, ALK4 (activin type I receptor) (UniProt P36896 24-505, limits assumed); experiment: cell-based or functional assay
T3 sequence (looked up): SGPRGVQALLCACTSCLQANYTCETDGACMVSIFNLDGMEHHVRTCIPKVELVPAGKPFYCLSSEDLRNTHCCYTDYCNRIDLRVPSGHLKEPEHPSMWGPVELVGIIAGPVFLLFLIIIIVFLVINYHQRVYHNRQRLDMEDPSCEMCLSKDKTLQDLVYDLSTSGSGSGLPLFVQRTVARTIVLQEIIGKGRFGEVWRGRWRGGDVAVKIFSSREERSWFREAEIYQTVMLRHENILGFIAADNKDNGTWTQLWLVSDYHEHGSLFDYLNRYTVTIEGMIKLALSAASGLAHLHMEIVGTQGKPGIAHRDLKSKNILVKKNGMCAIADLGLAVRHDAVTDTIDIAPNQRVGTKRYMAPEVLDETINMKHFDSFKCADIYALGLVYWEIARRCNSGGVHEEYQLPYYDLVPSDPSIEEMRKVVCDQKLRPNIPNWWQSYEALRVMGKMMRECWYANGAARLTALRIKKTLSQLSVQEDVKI

[5] = target: T3, ALK4 (activin type I receptor); experiment: cell-based or functional assay; remark: listed apart in the source
[6] = target: T3, ALK4 (activin type I receptor); experiment: DSS crosslinking of 125I-M108A to 293T cells transfected with ActRII-myc and ALK4, immunoprecipitation, SDS-PAGE, autoradiography
Procedure: Cells were incubated with labeled activin or labeled M108A as indicated, subjected to covalent crosslinking with dissucinylsuberate (DSS), solubilized in lysis buffer, immunoprecipitated using an antibody against myc or ALK4 and then immunoprecipitated proteins were resolved by SDS-PAGE and visualized by autoradiography.
Approximately 24 h later, cells were transfected with 2 μg DNA per well with the indicated constructs (the ratio of ActRII:ALK4 was 2:1 and total DNA was kept constant using pcDNA3.0). […] Cells were washed in HDB, resuspended at 0.5 mM disuccinylsuberate (DSS) in HDB and incubated 30 min on ice. Crosslinking reactions were quenched with TBS (50 mM Tris-HCl pH 7.5, 150 mM NaCl) and cells were solubilized in lysis buffer (TBS containing 1% NP-40, 0.5% deoxycholate and 2 mM EDTA) and subjected to immunopreciptation using anti-myc or anti-ALK4 antibodies as indicated. Immune complexes were analyzed by SDS-PAGE and autoradiography.

Row | Binder | fold higher affinity than in cells transfected with ActRII alone [1] | apparent affinity [2] | fold higher affinity than in cells transfected with ActRII alone [2] | EC50 [3] | EC50 of activity in the A3 Lux reporter assay in 293T cells [4] | % Activin Activity (A3-luciferase assay in 293T cells) [5] | affinity [2] | binding result [6]
1 | B1 | 2 fold | 60 to 80 pM | 2 fold | 0.15 nM | 0.2 nM | 100 % of wild type activin-A | – | –
2 | B2 | – | – | – | – | – | 8 % of wild type activin-A | 370 pM | no binding
